target: T1, SYNJ2BP, P57105; assay: holdup assay; set-up: key: below the threshold = too weak to quantify, mostly under pKd 3.1 to 4; details: plain residues with an end cap or a label only (N-terminal biotin on a linker: ado-ado)
T1 sequence (P57105 8-110, limits assumed, looked up): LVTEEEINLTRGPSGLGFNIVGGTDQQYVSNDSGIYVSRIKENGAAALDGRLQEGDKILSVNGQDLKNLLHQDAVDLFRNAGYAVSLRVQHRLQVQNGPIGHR

Row | Binder | pKd
1 | QLGSPTADLA [SIPA1, Q96FS4] | below the threshold

target: DLG4_2, P78352; assay: holdup assay; set-up: key: below the threshold = too weak to quantify, mostly under pKd 3.1 to 4; details: plain residues with an end cap or a label only (N-terminal biotin on a linker: ado-ado)
Sequence (P78352 155-259): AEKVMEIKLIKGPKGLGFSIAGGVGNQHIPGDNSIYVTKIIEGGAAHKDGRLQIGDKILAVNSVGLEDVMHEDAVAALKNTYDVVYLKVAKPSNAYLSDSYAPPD

Row | Binder | pKd
2 | QLGSPTADLA [SIPA1, Q96FS4] | 3.54

target: T2, DFNB31_2, Q9P202; assay: holdup assay; set-up: key: below the threshold = too weak to quantify, mostly under pKd 3.1 to 4; details: plain residues with an end cap or a label only (N-terminal biotin on a linker: ado-ado)
T2 sequence (Q9P202 274-371, limits assumed, looked up): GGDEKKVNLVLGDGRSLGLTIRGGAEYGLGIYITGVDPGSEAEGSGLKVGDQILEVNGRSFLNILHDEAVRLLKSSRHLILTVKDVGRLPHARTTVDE

Row | Binder | pKd
3 | QLGSPTADLA [SIPA1, Q96FS4] | below the threshold

target: T3, PARD3B_1, Q8TEW8; assay: holdup assay; set-up: key: below the threshold = too weak to quantify, mostly under pKd 3.1 to 4; details: plain residues with an end cap or a label only (N-terminal biotin on a linker: ado-ado)
T3 sequence (Q8TEW8 196-299, limits assumed, looked up): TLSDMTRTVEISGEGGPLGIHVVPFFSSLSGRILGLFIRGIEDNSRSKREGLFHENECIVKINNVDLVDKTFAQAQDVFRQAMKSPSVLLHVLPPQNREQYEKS

Row | Binder | pKd
4 | QLGSPTADLA [SIPA1, Q96FS4] | below the threshold

target: Inadl_10, Q8NI35; assay: holdup assay; set-up: key: below the threshold = too weak to quantify, mostly under pKd 3.1 to 4; details: plain residues with an end cap or a label only (N-terminal biotin on a linker: ado-ado)
Sequence (Q8NI35 1673-1763): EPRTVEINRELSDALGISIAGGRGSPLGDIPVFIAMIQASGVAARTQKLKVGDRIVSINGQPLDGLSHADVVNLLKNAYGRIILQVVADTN

Row | Binder | pKd
5 | QLGSPTADLA [SIPA1, Q96FS4] | below the threshold

target: Inadl_5, Q8NI35; assay: holdup assay; set-up: key: below the threshold = too weak to quantify, mostly under pKd 3.1 to 4; details: plain residues with an end cap or a label only (N-terminal biotin on a linker: ado-ado)
Sequence (Q8NI35 673-780): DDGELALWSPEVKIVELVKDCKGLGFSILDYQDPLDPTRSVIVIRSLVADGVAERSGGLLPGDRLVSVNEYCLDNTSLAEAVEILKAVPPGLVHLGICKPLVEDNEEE

Row | Binder | pKd
6 | QLGSPTADLA [SIPA1, Q96FS4] | below the threshold

target: T4, MPDZ_10, O75970; assay: holdup assay; set-up: key: below the threshold = too weak to quantify, mostly under pKd 3.1 to 4; details: plain residues with an end cap or a label only (N-terminal biotin on a linker: ado-ado)
T4 sequence (O75970 1624-1722, limits assumed, looked up): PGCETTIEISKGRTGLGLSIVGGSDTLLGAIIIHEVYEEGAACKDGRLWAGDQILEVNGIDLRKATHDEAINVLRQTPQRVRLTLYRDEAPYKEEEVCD

Row | Binder | pKd
7 | QLGSPTADLA [SIPA1, Q96FS4] | below the threshold

target: Inadl_9, Q8NI35; assay: holdup assay; set-up: key: below the threshold = too weak to quantify, mostly under pKd 3.1 to 4; details: plain residues with an end cap or a label only (N-terminal biotin on a linker: ado-ado)
Sequence (Q8NI35 1530-1615): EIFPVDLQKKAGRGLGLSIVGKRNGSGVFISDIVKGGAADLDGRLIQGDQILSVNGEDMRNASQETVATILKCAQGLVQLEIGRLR

Row | Binder | pKd
8 | QLGSPTADLA [SIPA1, Q96FS4] | below the threshold

target: TJP2_1, Q9UDY2; assay: holdup assay; set-up: key: below the threshold = too weak to quantify, mostly under pKd 3.1 to 4; details: plain residues with an end cap or a label only (N-terminal biotin on a linker: ado-ado)
Sequence (Q9UDY2 24-128): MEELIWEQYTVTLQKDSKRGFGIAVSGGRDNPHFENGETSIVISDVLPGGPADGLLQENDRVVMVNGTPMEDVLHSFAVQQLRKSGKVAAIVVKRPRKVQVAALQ

Row | Binder | pKd
9 | QLGSPTADLA [SIPA1, Q96FS4] | below the threshold

target: T5, HTRA3, P83110; assay: holdup assay; set-up: key: below the threshold = too weak to quantify, mostly under pKd 3.1 to 4; details: plain residues with an end cap or a label only (N-terminal biotin on a linker: ado-ado)
T5 sequence (P83110 354-453, limits assumed, looked up): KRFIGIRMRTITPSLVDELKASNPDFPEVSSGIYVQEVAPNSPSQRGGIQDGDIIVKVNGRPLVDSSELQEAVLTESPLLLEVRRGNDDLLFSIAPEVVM

Row | Binder | pKd
10 | QLGSPTADLA [SIPA1, Q96FS4] | below the threshold

target: NHERF4_4, Q86UT5; assay: holdup assay; set-up: key: below the threshold = too weak to quantify, mostly under pKd 3.1 to 4; details: plain residues with an end cap or a label only (N-terminal biotin on a linker: ado-ado)
Sequence (Q86UT5 464-550): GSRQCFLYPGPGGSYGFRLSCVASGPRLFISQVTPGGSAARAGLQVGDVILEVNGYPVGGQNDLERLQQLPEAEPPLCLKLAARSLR

Row | Binder | pKd
11 | QLGSPTADLA [SIPA1, Q96FS4] | below the threshold

target: T6, DLG3_3, Q92796; assay: holdup assay; set-up: key: below the threshold = too weak to quantify, mostly under pKd 3.1 to 4; details: plain residues with an end cap or a label only (N-terminal biotin on a linker: ado-ado)
T6 sequence (Q92796 374-475, limits assumed, looked up): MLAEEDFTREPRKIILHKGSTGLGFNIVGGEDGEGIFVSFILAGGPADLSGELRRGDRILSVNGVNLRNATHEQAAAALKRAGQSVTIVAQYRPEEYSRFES

Row | Binder | pKd
12 | QLGSPTADLA [SIPA1, Q96FS4] | below the threshold

target: T7, PTPN13_1, Q12923; assay: holdup assay; set-up: key: below the threshold = too weak to quantify, mostly under pKd 3.1 to 4; details: plain residues with an end cap or a label only (N-terminal biotin on a linker: ado-ado)
T7 sequence (Q12923 1088-1188, limits assumed, looked up): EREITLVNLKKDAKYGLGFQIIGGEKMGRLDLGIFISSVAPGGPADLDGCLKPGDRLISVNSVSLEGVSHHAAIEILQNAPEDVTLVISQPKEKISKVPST

Row | Binder | pKd
13 | QLGSPTADLA [SIPA1, Q96FS4] | below the threshold

target: GORASP2, Q9H8Y8; assay: holdup assay; set-up: key: below the threshold = too weak to quantify, mostly under pKd 3.1 to 4; details: plain residues with an end cap or a label only (N-terminal biotin on a linker: ado-ado)

Row | Binder | pKd
14 | QLGSPTADLA [SIPA1, Q96FS4] | below the threshold

target: HTRA1, Q92743; assay: holdup assay; set-up: key: below the threshold = too weak to quantify, mostly under pKd 3.1 to 4; details: plain residues with an end cap or a label only (N-terminal biotin on a linker: ado-ado)
Sequence (Q92743 360-477): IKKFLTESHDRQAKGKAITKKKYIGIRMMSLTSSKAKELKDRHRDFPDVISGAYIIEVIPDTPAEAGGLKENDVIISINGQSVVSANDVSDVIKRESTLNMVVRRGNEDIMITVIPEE

Row | Binder | pKd
15 | QLGSPTADLA [SIPA1, Q96FS4] | below the threshold

target: LAP2, Q96RT1; assay: holdup assay; set-up: key: below the threshold = too weak to quantify, mostly under pKd 3.1 to 4; details: plain residues with an end cap or a label only (N-terminal biotin on a linker: ado-ado)
Sequence (Q96RT1 other isoform, or with tags, fused parts or gaps): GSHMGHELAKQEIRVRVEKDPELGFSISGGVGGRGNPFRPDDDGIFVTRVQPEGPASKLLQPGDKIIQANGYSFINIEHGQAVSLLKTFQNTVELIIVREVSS

Row | Binder | pKd
16 | QLGSPTADLA [SIPA1, Q96FS4] | below the threshold

target: T8, GRIP1_4, Q9Y3R0; assay: holdup assay; set-up: key: below the threshold = too weak to quantify, mostly under pKd 3.1 to 4; details: plain residues with an end cap or a label only (N-terminal biotin on a linker: ado-ado)
T8 sequence (Q9Y3R0 467-571, limits assumed, looked up): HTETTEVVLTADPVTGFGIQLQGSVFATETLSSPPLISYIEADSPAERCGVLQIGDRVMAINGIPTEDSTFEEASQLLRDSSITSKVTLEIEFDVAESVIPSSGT

Row | Binder | pKd
17 | QLGSPTADLA [SIPA1, Q96FS4] | below the threshold

target: T9, GRIP1_2, Q9Y3R0; assay: holdup assay; set-up: key: below the threshold = too weak to quantify, mostly under pKd 3.1 to 4; details: plain residues with an end cap or a label only (N-terminal biotin on a linker: ado-ado)
T9 sequence (Q9Y3R0 145-248, limits assumed, looked up): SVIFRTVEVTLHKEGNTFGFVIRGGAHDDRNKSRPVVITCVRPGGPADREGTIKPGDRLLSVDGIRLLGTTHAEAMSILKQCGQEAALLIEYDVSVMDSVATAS

Row | Binder | pKd
18 | QLGSPTADLA [SIPA1, Q96FS4] | below the threshold

target: T10, RHPN1, Q8TCX5; assay: holdup assay; set-up: key: below the threshold = too weak to quantify, mostly under pKd 3.1 to 4; details: plain residues with an end cap or a label only (N-terminal biotin on a linker: ado-ado)
T10 sequence (Q8TCX5 508-602, limits assumed, looked up): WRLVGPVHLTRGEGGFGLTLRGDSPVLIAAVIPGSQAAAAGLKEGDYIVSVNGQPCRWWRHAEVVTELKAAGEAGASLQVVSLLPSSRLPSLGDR

Row | Binder | pKd
19 | QLGSPTADLA [SIPA1, Q96FS4] | below the threshold

target: DLG2_2, Q15700; assay: holdup assay; set-up: key: below the threshold = too weak to quantify, mostly under pKd 3.1 to 4; details: plain residues with an end cap or a label only (N-terminal biotin on a linker: ado-ado)
Sequence (Q15700 189-283): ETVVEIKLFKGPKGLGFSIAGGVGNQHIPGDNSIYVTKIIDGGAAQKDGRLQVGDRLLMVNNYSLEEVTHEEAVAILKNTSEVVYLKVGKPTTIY

Row | Binder | pKd
20 | QLGSPTADLA [SIPA1, Q96FS4] | below the threshold

target: IL16_1, Q14005; assay: holdup assay; set-up: key: below the threshold = too weak to quantify, mostly under pKd 3.1 to 4; details: plain residues with an end cap or a label only (N-terminal biotin on a linker: ado-ado)
Sequence (Q14005 210-306): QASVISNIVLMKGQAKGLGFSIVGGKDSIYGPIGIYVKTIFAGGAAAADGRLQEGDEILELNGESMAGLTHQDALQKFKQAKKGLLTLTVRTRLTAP

Row | Binder | pKd
21 | QLGSPTADLA [SIPA1, Q96FS4] | below the threshold

target: NOS1, P29475; assay: holdup assay; set-up: key: below the threshold = too weak to quantify, mostly under pKd 3.1 to 4; details: plain residues with an end cap or a label only (N-terminal biotin on a linker: ado-ado)
Sequence (P29475 9-101): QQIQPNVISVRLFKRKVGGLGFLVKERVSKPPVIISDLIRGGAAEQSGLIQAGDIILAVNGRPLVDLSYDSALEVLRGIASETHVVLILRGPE

Row | Binder | pKd
22 | QLGSPTADLA [SIPA1, Q96FS4] | below the threshold

target: T11, LIN7B, Q9HAP6; assay: holdup assay; set-up: key: below the threshold = too weak to quantify, mostly under pKd 3.1 to 4; details: plain residues with an end cap or a label only (N-terminal biotin on a linker: ado-ado)
T11 sequence (Q9HAP6 88-185, limits assumed, looked up): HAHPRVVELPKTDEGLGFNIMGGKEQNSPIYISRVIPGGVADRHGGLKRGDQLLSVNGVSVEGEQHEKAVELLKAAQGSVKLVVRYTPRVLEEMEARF

Row | Binder | pKd
23 | QLGSPTADLA [SIPA1, Q96FS4] | 3.9

target: T12, DLG3_2, Q92796; assay: holdup assay; set-up: key: below the threshold = too weak to quantify, mostly under pKd 3.1 to 4; details: plain residues with an end cap or a label only (N-terminal biotin on a linker: ado-ado)
T12 sequence (Q92796 221-321, limits assumed, looked up): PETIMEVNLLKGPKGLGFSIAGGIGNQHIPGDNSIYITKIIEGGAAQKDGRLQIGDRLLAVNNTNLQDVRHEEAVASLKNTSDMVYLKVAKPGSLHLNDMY

Row | Binder | pKd
24 | QLGSPTADLA [SIPA1, Q96FS4] | 4.06

target: TJP1_3, Q07157; assay: holdup assay; set-up: key: below the threshold = too weak to quantify, mostly under pKd 3.1 to 4; details: plain residues with an end cap or a label only (N-terminal biotin on a linker: ado-ado)
Sequence (Q07157 416-512): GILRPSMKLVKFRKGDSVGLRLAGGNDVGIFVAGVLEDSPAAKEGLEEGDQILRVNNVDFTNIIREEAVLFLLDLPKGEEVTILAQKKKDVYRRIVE

Row | Binder | pKd
25 | QLGSPTADLA [SIPA1, Q96FS4] | below the threshold
